From patent US20030185792A1, “Morphogen analogs of bone morphogenic proteins” (Curis, Inc., priority 1996, published 2003)

T1: ECD of DAF-4 (Caenorhabditis elegans, UniProt P50488)
T1 construct: highly purified ECD of DAF-4 as type II receptor
T1 sequence (P50488 48-253 limits assumed): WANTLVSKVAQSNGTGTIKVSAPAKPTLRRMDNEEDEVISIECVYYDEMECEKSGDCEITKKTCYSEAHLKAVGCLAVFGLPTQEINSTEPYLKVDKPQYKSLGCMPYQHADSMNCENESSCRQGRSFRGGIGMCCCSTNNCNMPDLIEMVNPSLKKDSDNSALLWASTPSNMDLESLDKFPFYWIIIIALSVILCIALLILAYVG

T2: DAF-4 ECD (Caenorhabditis elegans, UniProt P50488)
T2 construct: highly purified ECD of DAF-4 as type II receptor
T2 sequence (P50488 48-253 limits assumed): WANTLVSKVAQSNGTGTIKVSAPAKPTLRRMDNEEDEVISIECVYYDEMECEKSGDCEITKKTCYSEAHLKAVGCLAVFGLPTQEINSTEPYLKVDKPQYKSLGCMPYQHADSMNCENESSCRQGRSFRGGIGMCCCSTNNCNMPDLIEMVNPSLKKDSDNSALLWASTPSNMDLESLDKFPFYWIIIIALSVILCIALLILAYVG


Experiments:
ECD of DAF-4 = target: T1, ECD of DAF-4; test: Type II receptor-based rapid solid phase assay; format: binding; conditions: for inhibition of 125I-labeled OP-1 binding to the ECD of DAF-4: excess unlabeled competitor, FIG. 20
Method: iii. Type H Receptor-based rapid solid phase assay: OP-1 binding activity, and that of various synthetic peptides, may be determined by a rapid solid-phase assay using 125I-labeled OP-1 as ligand and highly purified ECD of DAF-4 as type II receptor. In a typical assay, ˜1 μg of ECD of DAF-4 receptor (R) is dissolved in 20 μl of 50 mM PBSA, pH 7.4 and immobilized on PVDF membranes (Immobilon-P) by using a slot-blot apparatus (VacuSlot-VS). A similarly immobilized polyclonal anti-OP-1 antibody (diluted Ab) has served as positive control, while bovine serum albumin (globulin free) and unrelated receptor ECD have served as negative controls in this assay. The receptor-containing membranes are incubated in 50 mM HEPES buffer, pH 7.4 containing 3% bovine serum albumin (BSA) for 14 h, in cold (4° C.), to block excess protein binding sites on the membrane. The blocking buffer is then replaced with 50 mM HEPES, pH 7.4 containing 0.5% BSA, 10 mM MgCl2 and 1 mM CaCl2, and the receptor-containing membranes are further incubated with ^125I-labeled OP-1 (˜400,000 cpm/ml) in the presence or absence of excess unlabeled OP-1 or test peptide for 18 h, with slow shaking at room temperature. Finally, the membranes are washed four times with 50 mM HEPES buffer, pH 7.4 containing 5 mM MgCl2 and 1 mM CaCl2, air dried and ^125I kept for autoradiography overnight.
Initial binding experiments were carried out to examine the role of the finger 2 region (Leu109-Arg129) of OP-1 in the interaction of OP-1 with the type II receptor. Incubation of DAF4 with radioiodinated OP-1 was done in the presence (a) and absence (b) of synthetic peptide (F2-3) corresponding to the indicated finger 2 region of OP-1. In parallel, immobilized receptor was incubated with radioiodinated OP-1 in the presence of unlabeled OP-1 which served as a positive control. […] These initial results thus identify that the finger 2 region (Leu109-Arg129) of OP-1 is likely a contact region in the interaction of OP-1 with the type II receptor.

DAF-4 ECD = target: T2, DAF-4 ECD; test: Type II receptor-based ligand blot, DAF-4 ECD; format: binding; conditions: FIG. 22
Method: (§1) iv. Type II receptor-based ligand-blot technique: A ligand blot method can be used to characterize OP-1 binding properties of highly purified DAF4 ECD and ROS cell receptor. Peptides are analyzed by this method to determine their ability to interact with type II receptor, based on their ability to inhibit ^125I-labeled OP-1 binding to the receptor. In a typical experiment, receptor-enriched ROS cell plasma membrane fraction or purified DAF-4 ECD is treated with SDS (final concentration 1.6%, w/v) in the presence of 17% glycerol on ice, as is known in the art, and subjected to SDS-PAGE under non-reducing conditions and without prior heating of the samples, according to the procedure of Laemmli. Receptor samples are electrophoressed at 35 mA and 4° C., in gradient (5-8% or 5-10%, w/v) acrylamide separating gels. Pre-stained markers of known MW, are used as standards. After SDS-PAGE, the resolved proteins from acrylamide gels are transblotted onto PVDF membranes (Immobilon-P transfer membranes) using an Pharmacia-LKB 2005 Transphor Unit, at constant current (0.2 A) and 4° C., for 16 h. Ligand blotting is carried out as follows. […]

ROS cell receptor = test: Type II receptor-based ligand blot, ROS cell receptor; format: binding, rat; conditions: FIG. 21
Method: as §1

binding to ECD of DAF-4 (ECD of DAF-4; FIG. 20 legend)	inhibition of 125I-labeled OP-1 binding to the ECD of DAF-4 (ECD of DAF-4)	Molecule	binding of 125I-labeled OP-1 to DAF-4 ECD (DAF-4 ECD)	binding of 125I-labeled OP-1 to ROS cell receptor (ROS cell receptor)
binds to ECD of DAF-4	75%	F2-3: SEQ ID No. 19; 16 residues, finger 2 tip 11-residue loop with 5-residue C-terminal extension (CYFDDSSNVICKKYRS; listed as Homo sapiens)	–	–
–	78%	OP-1: osteogenic protein-1, a tissue morphogenic protein of the TGF-β superfamily; mature human OP-1 is SEQ ID No. 4 (protein, listed as Homo sapiens) CKKHELYVSFRDLGWQDWIIAPEGYAAYYCEGECAFPLNSYMNATNHAIVQTLVHFINPETVPKPCCAPTQLNAISVLYFDDSSNVILKKYRNMVVRACGCH	OP-1 binding to two closely migrated receptor components	specifically binds
